We go through two molecules from patent US20040043438A1.

Assay [1] addresses specific IgE bound to the surface of human basophils from birch pollen allergic patients. Briefly: cell-based or functional assay.
Assay [2] deals with serum IgE from a pool of birch allergic patients. Briefly: fluid-phase IgE-inhibition assay; competes with biotinylated Bet v 1.2801 for pooled serum IgE.
For assay [3] the target is unchanged. Briefly: fluid-phase IgE-inhibition assay; competes with biotinylated Bet v 1 no. 2801 for pooled serum IgE.

B1: Mutant Bet v 1 (2628) (protein)
chain: GVFNVETETTSVIPAARLFKAFILDGDNLFPKVAPQAISSVENISGNGGPGTIKKISFPEGFPFNYVKDRVDEVDHTNFKYNYSVIEGGPIGDTLESISNEIKIVATPDGGSILKISNKYHTKGDHEVKAEQVEASKEMGETLLRAVESYLLAHSDAYN
Molecule B1 had a histamine release in human basophil: reduction of potency against Bet v 1.2801 in assay [1] of 3 to 10 fold. For the same molecule, the factor by which the affinity is lowered against Bet v 1.2801 in assay [2] lay in the range of 3 to 4 fold.

B2: Bet v 1 (Asn28Thr, Lys32Gln, Glu45Ser, Pro108Gly) mutant (protein)
chain: GVFNYETETTSVIPAARLFKAFILDGDTLFPQVAPQAISSVENISGNGGPGTIKKISFPEGFPFKYVKDRVDEVDHTNFKYNYSVIEGGPIGDTLEKISNEIKIVATGDGGSILKISNKYHTKGDHEVKAEQVKASKEMGETLLRAVESYLLAHSDAYN
On to B2, for which, in assay [3], the amount to reach 80% inhibition was found to be 400 ng, the factor of decrease against recombinant Bet v 1 (at 80% inhibition) stood at 20 fold and the factor of decrease in affinity against recombinant Bet v 1 (at 50% inhibition) was 5 fold.
